According to the supplement of paper PMC10065799, “High-throughput profiling of sequence recognition by tyrosine kinases and SH2 domains using bacterial peptide display” (eLife, 2023):

Columns and labels:
[1] = target: Fes (UniProt P07332); experiment: phosphorylation enrichment, bacterial display (enrichment ratio); higher = better substrate or ligand; peptides without Tyr show the background
[2] = target: Jak2 (UniProt O60674); experiment: as above
[3] = target: FGFR1 (UniProt P11362); experiment: as above
[4] = target: Fyn (UniProt P06241); experiment: as above
[5] = target: EPHB2 (UniProt P29323); experiment: as above
[6] = system: Fer (mouse); experiment: as above
[7] = target: Hck (UniProt P08631); experiment: as above
[8] = system: c-Src; experiment: as above
[9] = target: FGFR3 (UniProt P22607); experiment: as above
[10] = target: EPHB1 (UniProt P54762); experiment: as above
[11] = system: c-Abl (mouse); experiment: as above
[12] = system: AncSZ; experiment: as above
[13] = target: MERTK (UniProt Q12866); experiment: as above
[14] = target: Grb2 SH2 (UniProt P62993); experiment: SH2 binding enrichment of the phosphorylated peptide, bacterial display (enrichment ratio); higher = better substrate or ligand; peptides without Tyr show the background
[15] = target: SHP2-C SH2; experiment: as above
[16] = target: c-Src SH2; experiment: as above
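Throughout, for SH2 binding enrichment of the phosphorylated peptide, bacterial display: peptide library displayed on the E. coli surface as eCPX fusions, selected cells deep-sequenced, score is each peptide's frequency after selection divided by its frequency in the input.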
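Throughout, for phosphorylation enrichment, bacterial display: 11-residue human phosphosite peptides and single-mutation variants displayed on the E. coli surface, counted by deep sequencing, each peptide's frequency after selection divided by its frequency in the unselected input library; frequency after pTyr selection over input frequency; kinase dosed for 20-30% of maximal phosphorylation in three min.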

Chain of Fyn (P06241 whole entry, looked up): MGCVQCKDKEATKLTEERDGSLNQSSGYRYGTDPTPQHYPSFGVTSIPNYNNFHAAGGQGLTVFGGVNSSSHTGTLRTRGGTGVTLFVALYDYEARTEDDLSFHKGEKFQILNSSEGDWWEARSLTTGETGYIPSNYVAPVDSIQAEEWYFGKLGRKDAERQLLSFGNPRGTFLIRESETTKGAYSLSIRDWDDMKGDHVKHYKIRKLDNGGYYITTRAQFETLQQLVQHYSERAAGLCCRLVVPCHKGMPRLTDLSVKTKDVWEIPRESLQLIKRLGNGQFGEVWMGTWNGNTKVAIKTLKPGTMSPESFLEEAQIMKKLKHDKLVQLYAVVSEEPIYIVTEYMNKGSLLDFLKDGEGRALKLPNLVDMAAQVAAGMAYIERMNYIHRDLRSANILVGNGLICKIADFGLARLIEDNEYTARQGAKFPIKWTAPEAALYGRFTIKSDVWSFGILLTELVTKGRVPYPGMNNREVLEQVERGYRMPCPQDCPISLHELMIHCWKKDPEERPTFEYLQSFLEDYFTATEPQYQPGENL
Chain of MERTK (Q12866 whole entry, looked up): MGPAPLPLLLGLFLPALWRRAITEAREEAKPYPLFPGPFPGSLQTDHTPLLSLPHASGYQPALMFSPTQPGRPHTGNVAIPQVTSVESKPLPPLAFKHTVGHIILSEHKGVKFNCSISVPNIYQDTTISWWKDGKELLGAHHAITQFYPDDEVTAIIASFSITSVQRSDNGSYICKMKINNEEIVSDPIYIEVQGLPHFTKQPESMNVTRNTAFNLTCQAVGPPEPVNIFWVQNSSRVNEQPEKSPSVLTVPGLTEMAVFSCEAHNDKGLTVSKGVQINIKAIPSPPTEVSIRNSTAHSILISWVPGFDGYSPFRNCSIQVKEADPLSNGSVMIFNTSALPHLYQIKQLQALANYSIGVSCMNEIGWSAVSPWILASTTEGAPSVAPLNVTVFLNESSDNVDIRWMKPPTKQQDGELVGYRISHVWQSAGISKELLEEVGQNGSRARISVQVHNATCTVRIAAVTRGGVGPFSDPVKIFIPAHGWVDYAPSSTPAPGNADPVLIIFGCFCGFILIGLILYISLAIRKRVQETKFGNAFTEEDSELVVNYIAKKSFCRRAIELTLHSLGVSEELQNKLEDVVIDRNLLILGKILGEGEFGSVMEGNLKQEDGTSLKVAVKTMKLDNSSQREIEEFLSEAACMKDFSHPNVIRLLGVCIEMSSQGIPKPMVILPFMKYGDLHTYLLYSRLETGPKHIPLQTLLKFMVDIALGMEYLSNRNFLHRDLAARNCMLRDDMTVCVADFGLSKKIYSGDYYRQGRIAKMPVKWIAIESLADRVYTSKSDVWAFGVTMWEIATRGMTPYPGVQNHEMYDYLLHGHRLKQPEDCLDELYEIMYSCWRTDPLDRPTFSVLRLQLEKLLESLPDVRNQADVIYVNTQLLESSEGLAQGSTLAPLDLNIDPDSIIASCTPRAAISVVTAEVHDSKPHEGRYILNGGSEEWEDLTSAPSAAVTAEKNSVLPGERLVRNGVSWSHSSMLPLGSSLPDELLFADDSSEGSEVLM
Chain of Fes (P07332 whole entry, looked up): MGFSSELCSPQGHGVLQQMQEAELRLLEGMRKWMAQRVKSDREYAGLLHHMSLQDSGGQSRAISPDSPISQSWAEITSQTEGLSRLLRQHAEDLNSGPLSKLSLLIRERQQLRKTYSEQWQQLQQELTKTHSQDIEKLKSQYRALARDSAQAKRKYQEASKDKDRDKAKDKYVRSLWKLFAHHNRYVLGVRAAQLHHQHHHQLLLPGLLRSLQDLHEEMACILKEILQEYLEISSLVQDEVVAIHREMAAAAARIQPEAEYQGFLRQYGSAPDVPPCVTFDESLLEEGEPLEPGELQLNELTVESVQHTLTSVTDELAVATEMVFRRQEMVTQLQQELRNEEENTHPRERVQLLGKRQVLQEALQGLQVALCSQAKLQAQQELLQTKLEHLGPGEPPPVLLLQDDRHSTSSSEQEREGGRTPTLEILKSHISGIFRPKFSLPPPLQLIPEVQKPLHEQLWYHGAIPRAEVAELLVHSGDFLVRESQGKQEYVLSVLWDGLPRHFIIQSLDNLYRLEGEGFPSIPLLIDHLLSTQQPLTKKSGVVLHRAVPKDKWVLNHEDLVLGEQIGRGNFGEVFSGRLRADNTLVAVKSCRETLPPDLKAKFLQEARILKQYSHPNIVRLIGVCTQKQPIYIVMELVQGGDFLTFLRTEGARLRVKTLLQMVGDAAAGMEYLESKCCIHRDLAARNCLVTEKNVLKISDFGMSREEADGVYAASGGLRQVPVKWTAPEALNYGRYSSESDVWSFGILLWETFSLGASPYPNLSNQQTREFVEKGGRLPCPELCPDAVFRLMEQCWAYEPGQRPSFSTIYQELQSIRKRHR
Chain of Hck (P08631 whole entry, looked up): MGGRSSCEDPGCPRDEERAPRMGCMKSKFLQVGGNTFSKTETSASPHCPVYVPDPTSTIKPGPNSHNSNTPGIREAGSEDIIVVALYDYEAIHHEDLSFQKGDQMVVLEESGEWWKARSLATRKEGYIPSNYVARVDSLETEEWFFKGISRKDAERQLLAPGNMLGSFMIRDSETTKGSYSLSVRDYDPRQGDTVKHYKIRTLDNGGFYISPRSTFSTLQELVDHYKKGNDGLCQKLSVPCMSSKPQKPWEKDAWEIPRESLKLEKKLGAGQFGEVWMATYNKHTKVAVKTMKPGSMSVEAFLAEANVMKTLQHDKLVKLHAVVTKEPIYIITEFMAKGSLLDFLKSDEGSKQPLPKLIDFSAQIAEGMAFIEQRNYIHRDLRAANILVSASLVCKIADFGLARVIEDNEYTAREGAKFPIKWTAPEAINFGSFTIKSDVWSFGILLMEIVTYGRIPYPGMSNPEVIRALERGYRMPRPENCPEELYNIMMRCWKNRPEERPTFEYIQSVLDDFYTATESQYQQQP
Chain of Jak2 (O60674 whole entry, looked up): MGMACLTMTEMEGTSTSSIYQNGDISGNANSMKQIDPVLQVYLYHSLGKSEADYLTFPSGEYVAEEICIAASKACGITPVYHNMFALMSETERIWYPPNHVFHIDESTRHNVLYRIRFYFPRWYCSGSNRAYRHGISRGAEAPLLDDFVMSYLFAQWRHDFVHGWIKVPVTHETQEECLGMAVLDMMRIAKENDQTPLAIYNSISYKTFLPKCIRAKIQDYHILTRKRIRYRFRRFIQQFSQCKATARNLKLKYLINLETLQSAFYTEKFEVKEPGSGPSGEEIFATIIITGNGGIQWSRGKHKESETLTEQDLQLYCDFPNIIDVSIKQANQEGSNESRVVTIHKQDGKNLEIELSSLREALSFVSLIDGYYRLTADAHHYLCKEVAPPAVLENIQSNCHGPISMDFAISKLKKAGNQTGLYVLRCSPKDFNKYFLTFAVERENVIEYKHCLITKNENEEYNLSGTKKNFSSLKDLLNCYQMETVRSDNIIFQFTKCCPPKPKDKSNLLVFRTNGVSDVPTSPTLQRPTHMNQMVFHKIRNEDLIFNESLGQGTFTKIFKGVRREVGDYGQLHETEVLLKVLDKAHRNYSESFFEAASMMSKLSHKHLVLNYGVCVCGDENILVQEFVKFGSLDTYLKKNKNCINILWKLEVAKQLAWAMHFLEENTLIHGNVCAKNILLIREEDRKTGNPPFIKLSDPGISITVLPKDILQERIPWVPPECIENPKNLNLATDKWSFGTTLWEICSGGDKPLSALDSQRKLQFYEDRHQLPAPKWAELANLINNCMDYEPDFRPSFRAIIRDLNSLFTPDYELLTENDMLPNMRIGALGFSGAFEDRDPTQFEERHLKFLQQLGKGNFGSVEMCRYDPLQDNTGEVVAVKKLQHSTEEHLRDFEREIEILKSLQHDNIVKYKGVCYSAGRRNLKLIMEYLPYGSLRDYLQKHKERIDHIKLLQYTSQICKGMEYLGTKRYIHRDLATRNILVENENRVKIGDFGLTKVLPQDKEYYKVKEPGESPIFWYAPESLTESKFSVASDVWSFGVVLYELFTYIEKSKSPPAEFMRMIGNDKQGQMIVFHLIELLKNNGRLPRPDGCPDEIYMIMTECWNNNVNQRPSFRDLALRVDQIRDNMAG
Chain of EPHB1 (P54762 whole entry, looked up): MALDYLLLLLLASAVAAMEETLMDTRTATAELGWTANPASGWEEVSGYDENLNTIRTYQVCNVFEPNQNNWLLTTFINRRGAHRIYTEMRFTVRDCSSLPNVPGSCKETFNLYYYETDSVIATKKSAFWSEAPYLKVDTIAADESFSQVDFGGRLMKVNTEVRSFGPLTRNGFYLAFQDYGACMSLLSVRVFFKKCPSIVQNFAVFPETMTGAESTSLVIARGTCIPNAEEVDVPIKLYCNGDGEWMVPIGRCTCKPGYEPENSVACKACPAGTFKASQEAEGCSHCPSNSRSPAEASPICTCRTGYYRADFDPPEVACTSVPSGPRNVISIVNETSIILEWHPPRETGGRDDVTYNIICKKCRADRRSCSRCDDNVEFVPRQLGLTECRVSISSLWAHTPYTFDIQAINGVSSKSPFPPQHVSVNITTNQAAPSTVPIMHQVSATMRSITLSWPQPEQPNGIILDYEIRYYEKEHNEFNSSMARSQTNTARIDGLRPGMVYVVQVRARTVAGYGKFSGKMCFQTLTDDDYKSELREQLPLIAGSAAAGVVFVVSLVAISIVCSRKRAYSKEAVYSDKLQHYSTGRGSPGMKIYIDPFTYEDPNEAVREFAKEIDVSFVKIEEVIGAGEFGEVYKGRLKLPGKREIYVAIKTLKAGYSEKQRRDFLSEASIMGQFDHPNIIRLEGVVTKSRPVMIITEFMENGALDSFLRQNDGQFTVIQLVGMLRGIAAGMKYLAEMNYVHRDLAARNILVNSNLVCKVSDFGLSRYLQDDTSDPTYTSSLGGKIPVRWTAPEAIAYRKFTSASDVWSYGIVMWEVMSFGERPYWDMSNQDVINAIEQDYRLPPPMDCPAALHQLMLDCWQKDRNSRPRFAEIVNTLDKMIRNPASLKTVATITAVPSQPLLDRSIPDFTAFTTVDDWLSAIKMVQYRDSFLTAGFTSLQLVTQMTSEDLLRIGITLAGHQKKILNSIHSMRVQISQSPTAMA

Row | SH2 binding enrichment [14] | SH2 binding enrichment [15] | SH2 binding enrichment [16] | Sequence | phosphorylation enrichment [1] | phosphorylation enrichment [2] | phosphorylation enrichment [3] | phosphorylation enrichment [4] | phosphorylation enrichment [5] | phosphorylation enrichment [6] | phosphorylation enrichment [7] | phosphorylation enrichment [8] | phosphorylation enrichment [9] | phosphorylation enrichment [10] | phosphorylation enrichment [11] | phosphorylation enrichment [12] | phosphorylation enrichment [13]
1 | 1.3 | 1.08 | 0.918 | LFCVHYFHRTF [SRD5A2_Y91] | 2.73 | 2.73 | 1.04 | 1.04 | 1.24 | 1.47 | 1.16 | 1.14 | 1.97 | 1.26 | 2.35 | 2.32 | 0.989
2 | 0.662 | 0.658 | 0.528 | FQCLRYIKQLG [SAMHD1_Y146_R143C] | 1.25 | 1.11 | 0.382 | 0.427 | 0.434 | 0.428 | 0.452 | 0.44 | 0.596 | 0.468 | 0.809 | 0.954 | 0.423
3 | 0.833 | 0.64 | 0.418 | DDHFTYSRFPW [LY75_Y888_YF] | 1.07 | 1.28 | 0.905 | 4.83 | 5.18 | 0.609 | 6.66 | 4.98 | 0.797 | 4.84 | 1.66 | 1.16 | 3.18
4 | 0.944 | 1.2 | 1.92 | RHTRSYDFMEG [FGF7_Y56_YF] | 1.19 | 0.852 | 0.591 | 0.823 | 0.792 | 0.794 | 0.857 | 0.82 | 0.726 | 0.293 | 1.3 | 0.848 | 1.13
5 | 0.9 | 1.52 | 7.18 | TLNVRYESVQA [CEACAM7_Y236] | 0.745 | 0.755 | 0.451 | 0.434 | 0.415 | 0.59 | 0.487 | 0.415 | 0.617 | 0.44 | 0.504 | 0.757 | 0.371
6 | 0.763 | 0.964 | 0.742 | FESPRYLQVRI [FANCA_Y488_H492R] | 0.985 | 0.756 | 0.62 | 0.513 | 0.477 | 0.589 | 0.579 | 0.437 | 0.572 | 0.537 | 0.68 | 0.946 | 0.437
7 | 0.924 | 0.967 | 1.05 | TTICKYSTPME [GUCY2C_Y839] | 0.801 | 0.756 | 0.608 | 0.35 | 0.488 | 0.351 | 0.413 | 0.474 | 0.567 | 0.395 | 0.63 | 0.798 | 0.446
8 | 0.825 | 0.753 | 0.574 | NPSFNYEIVNR [DYNC1H1_Y3379_YF] | 1.19 | 1.1 | 0.488 | 0.445 | 1.29 | 0.514 | 0.535 | 0.388 | 0.666 | 2.91 | 0.588 | 1.15 | 0.387
